# Laboratory results reported in US20240124560A1.
# Columns and labels:
# Assay in all cases: cell-based or functional assay
# [1] = molecular target: HIV-1 Env of pseudovirus NIH-003_SC422661.8 (HIV-1)
# [2] = molecular target: HIV-1 Env of NIH-006_AC10.0.29 (HIV-1)
# [3] = molecular target: HIV-1 Env of pseudovirus NIH-007_CAAN5342.A2 (HIV-1)
# [4] = molecular target: HIV-1 Env of NIH-073_C3347.c11 (HIV-1)
# [5] = molecular target: HIV-1 Env of NIH-011_1056.10.TA11.1826 (HIV-1)
# [6] = molecular target: HIV-1 Env of pseudovirus NIH-049_CNE20 (HIV-1)
# [7] = molecular target: HIV-1 Env of NIH-066_191084 B7.19 (HIV-1)
# [8] = molecular target: HIV-1 Env of NIH-034_Ce0393 C3 (HIV-1)
# [9] = molecular target: HIV-1 Env of NIH-016_SC05.8C11.2344 (HIV-1)
# [10] = molecular target: HIV-1 Env of NIH-118_T255.34 (HIV-1)
# [11] = molecular target: HIV-1 Env of pseudovirus NAC_94UG103 (HIV-1)
# [12] = molecular target: HIV-1 Env of NIH-041_BF1266.431a (HIV-1)
# [13] = molecular target: HIV-1 Env of pseudovirus NIH-041_BF1266.431a (HIV-1)
# [14] = molecular target: HIV-1 Env of NIH-003_SC422661.8 (HIV-1)
# [15] = molecular target: HIV-1 Env of pseudovirus NIH-070_R2184.c04 (HIV-1)
# [16] = molecular target: HIV-1 Env of pseudovirus NAC_93IN905 (HIV-1)
# [17] = molecular target: HIV-1 Env of NIH-074_C4118.c09 (HIV-1)
# [18] = molecular target: HIV-1 Env of pseudovirus NIH-097_6811.v7.c18 (HIV-1)
# [19] = molecular target: HIV-1 Env of pseudovirus NIH-013_6240.08.TA5.4622 (HIV-1)
# [20] = molecular target: HIV-1 Env of pseudovirus NIH-039_Ce2060 G9 (HIV-1)
# [21] = molecular target: HIV-1 Env of pseudovirus NIH-065_191955 A11 (HIV-1)
# [22] = molecular target: HIV-1 Env of pseudovirus NIH-084_X1254 c3 (clade G) (HIV-1)
# [23] = molecular target: HIV-1 Env of pseudovirus NIH-047_Ce704809221 1B3 (HIV-1)
# [24] = molecular target: HIV-1 Env of NIH-047_Ce704809221 1B3 (HIV-1)
# [25] = molecular target: HIV-1 Env of NIH-060_Q769ENVd22 (HIV-1)
# [26] = molecular target: HIV-1 Env of NAC_MN (HIV-1) (UniProt P05877)
# Chain of HIV-1 Env of NAC_MN (HIV-1) (P05877 32-856 limits assumed): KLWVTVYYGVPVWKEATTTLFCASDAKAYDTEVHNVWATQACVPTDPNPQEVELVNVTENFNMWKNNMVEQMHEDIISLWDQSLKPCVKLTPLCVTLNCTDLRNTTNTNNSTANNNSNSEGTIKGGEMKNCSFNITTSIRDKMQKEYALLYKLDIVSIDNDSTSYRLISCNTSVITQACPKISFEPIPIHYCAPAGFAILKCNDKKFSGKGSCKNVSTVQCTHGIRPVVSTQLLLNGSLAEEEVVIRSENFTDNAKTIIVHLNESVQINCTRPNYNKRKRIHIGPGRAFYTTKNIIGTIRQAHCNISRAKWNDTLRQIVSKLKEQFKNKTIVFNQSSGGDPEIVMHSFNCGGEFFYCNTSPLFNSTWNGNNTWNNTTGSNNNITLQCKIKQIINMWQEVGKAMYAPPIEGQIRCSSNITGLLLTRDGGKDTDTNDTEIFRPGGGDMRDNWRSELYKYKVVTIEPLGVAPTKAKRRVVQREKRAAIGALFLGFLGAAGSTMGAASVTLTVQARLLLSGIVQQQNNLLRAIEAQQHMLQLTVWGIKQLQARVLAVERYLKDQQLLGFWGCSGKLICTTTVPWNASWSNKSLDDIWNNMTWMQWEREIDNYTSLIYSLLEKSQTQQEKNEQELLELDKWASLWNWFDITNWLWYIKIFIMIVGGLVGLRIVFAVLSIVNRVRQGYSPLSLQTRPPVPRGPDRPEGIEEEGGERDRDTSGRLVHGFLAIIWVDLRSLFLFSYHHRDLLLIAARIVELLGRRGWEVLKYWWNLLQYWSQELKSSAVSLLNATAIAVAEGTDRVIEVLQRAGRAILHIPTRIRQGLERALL
# [27] = molecular target: HIV-1 Env of NIH-032_HIV-16845.2.22 (HIV-1)
# [28] = molecular target: HIV-1 Env of pseudovirus NIH-045_7030102001E5(Rev.) (HIV-1)
# [29] = molecular target: HIV-1 Env of pseudovirus NIH-057_MS208.A1 (HIV-1)
# [30] = molecular target: HIV-1 Env of pseudovirus NIH-090_A07412M1.vrc12 (clade D) (HIV-1)
# [31] = molecular target: HIV-1 Env of NIH-036_Ce2010 F5 (HIV-1)
# [32] = molecular target: HIV-1 Env of pseudovirus NAC_KNH1144 (HIV-1)
# [33] = molecular target: HIV-1 Env of NIH-042_ZM246F.D5 (HIV-1)
# [34] = molecular target: HIV-1 Env of pseudovirus NIH-005_TRO.11 (HIV-1)
# [35] = molecular target: HIV-1 Env of pseudovirus NIH-082_X1193 c1 (clade G) (HIV-1)
# [36] = molecular target: HIV-1 Env of NIH-063_0330.v4.c3 (HIV-1)
# [37] = molecular target: HIV-1 Env of NIH-058_Q23ENV17 (HIV-1)
# [38] = molecular target: HIV-1 Env of isolate NIH-085_X2088 c9 (HIV-1)
# [39] = molecular target: HIV-1 Env of pseudovirus NIH-051_CNE17 (HIV-1)
# [40] = molecular target: HIV-1 Env of pseudovirus NIH-083_P0402 c2 11 (clade G) (HIV-1)
# [41] = molecular target: HIV-1 Env of pseudovirus NIH-038_Ce1172 H1 (HIV-1)
# [42] = molecular target: HIV-1 Env of NIH-044_ZM247F.F7 (HIV-1)
# [43] = molecular target: HIV-1 Env of NIH-002_QHO692 .42 (HIV-1)
# [44] = molecular target: HIV-1 Env of NAC_92RW020 (HIV-1)
# [45] = molecular target: HIV-1 Env of isolate NIH-084_X1254 c3 (HIV-1)
substance,measurement,setting,value
VRC01 (antibody),neutralization IC50,[1],0.124 µg/mL
same,IC80 neutralization,[2],3.52 µg/mL
same,neutralization IC50,[3],0.691 µg/mL
same,IC80 neutralization,[4],0.254 µg/mL
same,IC80 neutralization,[5],1.48 µg/mL
same,neutralization IC50,[6],4.85 µg/mL
same,IC80 neutralization,[7],0.188 µg/mL
same,IC80 neutralization,[8],1.46 µg/mL
same,IC80 neutralization,[9],1.98 µg/mL
same,IC80 neutralization,[10],0.925 µg/mL
same,neutralization IC50,[11],0.187 µg/mL
same,IC80 neutralization,[12],0.11 µg/mL
same,neutralization IC50,[13],0.028 µg/mL
same,IC80 neutralization,[14],0.481 µg/mL
same,neutralization IC50,[15],0.103 µg/mL
same,neutralization IC50,[16],0.07 µg/mL
same,IC80 neutralization,[17],0.202 µg/mL
same,neutralization IC50,[18],0.14 µg/mL
same,neutralization IC50,[19],0.604 µg/mL
same,neutralization IC50,[20],0.109 µg/mL
same,neutralization IC50,[21],0.091 µg/mL
same,"IC50 (µg/ml), TZM-bl cell neutralization assay, pseudovirus",[22],0.039 µg/mL
same,neutralization IC50,[23],0.32 µg/mL
same,IC80 neutralization,[24],1.28 µg/mL
same,IC80 neutralization,[25],0.092 µg/mL
same,IC80 neutralization,[26],0.196 µg/mL
same,IC80 neutralization,[27],4.25 µg/mL
same,neutralization IC50,[28],0.38 µg/mL
same,neutralization IC50,[29],0.063 µg/mL
same,"IC50 (µg/ml), TZM-bl cell neutralization assay, pseudovirus",[30],0.051 µg/mL
same,IC80 neutralization,[31],0.625 µg/mL
same,neutralization IC50,[32],0.134 µg/mL
same,IC80 neutralization,[33],43.7 µg/mL
same,neutralization IC50,[34],0.231 µg/mL
same,"IC50 (µg/ml), TZM-bl cell neutralization assay, pseudovirus",[35],0.098 µg/mL
same,IC80 neutralization,[36],0.13 µg/mL
same,IC80 neutralization,[37],0.148 µg/mL
same,"IC80 (µg/ml), TZM-bl pseudovirus neutralization",[38],> 50 µg/mL
same,neutralization IC50,[39],0.219 µg/mL
same,"IC50 (µg/ml), TZM-bl cell neutralization assay, pseudovirus",[40],0.04 µg/mL
same,neutralization IC50,[41],> 50 µg/mL
same,IC80 neutralization,[42],0.945 µg/mL
same,IC80 neutralization,[43],7.93 µg/mL
same,IC80 neutralization,[44],0.811 µg/mL
same,"IC80 (µg/ml), TZM-bl pseudovirus neutralization",[45],0.149 µg/mL
4E10 (antibody),neutralization IC50,[1],2.78 µg/mL
same,IC80 neutralization,[2],2.73 µg/mL
same,neutralization IC50,[3],2.84 µg/mL
same,IC80 neutralization,[4],0.137 µg/mL
same,IC80 neutralization,[5],2.81 µg/mL
same,neutralization IC50,[6],0.383 µg/mL
same,IC80 neutralization,[7],9.04 µg/mL
same,IC80 neutralization,[8],2.56 µg/mL
same,IC80 neutralization,[9],3.44 µg/mL
same,IC80 neutralization,[10],1.38 µg/mL
same,neutralization IC50,[11],1.77 µg/mL
same,IC80 neutralization,[12],10 µg/mL
same,neutralization IC50,[13],2.47 µg/mL
same,IC80 neutralization,[14],11.1 µg/mL
same,neutralization IC50,[15],0.223 µg/mL
same,neutralization IC50,[16],0.11 µg/mL
same,IC80 neutralization,[17],1.17 µg/mL
same,neutralization IC50,[18],2.74 µg/mL
same,neutralization IC50,[19],9.78 µg/mL
same,neutralization IC50,[20],1.24 µg/mL
same,neutralization IC50,[21],0.011 µg/mL
same,"IC50 (µg/ml), TZM-bl cell neutralization assay, pseudovirus",[22],2.88 µg/mL
same,neutralization IC50,[23],0.134 µg/mL
same,IC80 neutralization,[24],0.557 µg/mL
same,IC80 neutralization,[25],6.57 µg/mL
same,IC80 neutralization,[26],0.135 µg/mL
same,IC80 neutralization,[27],0.653 µg/mL
same,neutralization IC50,[28],3.41 µg/mL
same,neutralization IC50,[29],0.678 µg/mL
same,"IC50 (µg/ml), TZM-bl cell neutralization assay, pseudovirus",[30],2.58 µg/mL
same,IC80 neutralization,[31],> 50 µg/mL
same,neutralization IC50,[32],11.5 µg/mL
same,IC80 neutralization,[33],6.7 µg/mL
same,neutralization IC50,[34],0.769 µg/mL
same,"IC50 (µg/ml), TZM-bl cell neutralization assay, pseudovirus",[35],0.359 µg/mL
same,IC80 neutralization,[36],4.17 µg/mL
same,IC80 neutralization,[37],5.37 µg/mL
same,"IC80 (µg/ml), TZM-bl pseudovirus neutralization",[38],> 50 µg/mL
same,neutralization IC50,[39],0.526 µg/mL
same,"IC50 (µg/ml), TZM-bl cell neutralization assay, pseudovirus",[40],0.084 µg/mL
same,neutralization IC50,[41],8.81 µg/mL
same,IC80 neutralization,[42],7.5 µg/mL
same,IC80 neutralization,[43],25 µg/mL
same,IC80 neutralization,[44],9.61 µg/mL
same,"IC80 (µg/ml), TZM-bl pseudovirus neutralization",[45],11.8 µg/mL
PGZL1 (antibody),neutralization IC50,[1],16.8 µg/mL
same,IC80 neutralization,[2],18.8 µg/mL
same,neutralization IC50,[3],34 µg/mL
same,IC80 neutralization,[4],0.263 µg/mL
same,IC80 neutralization,[5],14.9 µg/mL
same,neutralization IC50,[6],2.42 µg/mL
same,IC80 neutralization,[7],> 50 µg/mL
same,IC80 neutralization,[8],> 50 µg/mL
same,IC80 neutralization,[9],24.6 µg/mL
same,IC80 neutralization,[10],13.2 µg/mL
same,neutralization IC50,[11],24.1 µg/mL
same,IC80 neutralization,[12],> 50 µg/mL
same,neutralization IC50,[13],48.8 µg/mL
same,IC80 neutralization,[14],> 50 µg/mL
same,neutralization IC50,[15],12.9 µg/mL
same,neutralization IC50,[16],0.404 µg/mL
same,IC80 neutralization,[17],33.3 µg/mL
same,neutralization IC50,[18],> 50 µg/mL
same,neutralization IC50,[19],35.8 µg/mL
same,neutralization IC50,[20],15 µg/mL
same,neutralization IC50,[21],1.89 µg/mL
same,"IC50 (µg/ml), TZM-bl cell neutralization assay, pseudovirus",[22],45.5 µg/mL
same,neutralization IC50,[23],0.738 µg/mL
same,IC80 neutralization,[24],3.1 µg/mL
same,IC80 neutralization,[25],> 50 µg/mL
same,IC80 neutralization,[26],0.564 µg/mL
same,IC80 neutralization,[27],2.47 µg/mL
same,neutralization IC50,[28],49.6 µg/mL
same,neutralization IC50,[29],10.1 µg/mL
same,"IC50 (µg/ml), TZM-bl cell neutralization assay, pseudovirus",[30],13.9 µg/mL
same,IC80 neutralization,[31],> 50 µg/mL
same,neutralization IC50,[32],> 50 µg/mL
same,IC80 neutralization,[33],> 50 µg/mL
same,neutralization IC50,[34],2.88 µg/mL
same,"IC50 (µg/ml), TZM-bl cell neutralization assay, pseudovirus",[35],5.31 µg/mL
same,IC80 neutralization,[36],> 50 µg/mL
same,IC80 neutralization,[37],> 50 µg/mL
same,"IC80 (µg/ml), TZM-bl pseudovirus neutralization",[38],> 50 µg/mL
same,neutralization IC50,[39],12.4 µg/mL
same,"IC50 (µg/ml), TZM-bl cell neutralization assay, pseudovirus",[40],8.29 µg/mL
same,neutralization IC50,[41],0.948 µg/mL
same,IC80 neutralization,[42],48.2 µg/mL
same,IC80 neutralization,[43],> 50 µg/mL
same,IC80 neutralization,[44],> 50 µg/mL
same,"IC80 (µg/ml), TZM-bl pseudovirus neutralization",[45],> 50 µg/mL
